One protein from article PMC7540478 can be followed below.

Substrate in series [1]: O=P(O)(O)O[C@H]1O[C@H](CO)[C@@H](O)[C@H](O)[C@H]1O
In words: purified protein. Particulars: 2 M glycerol as acceptor, 50 mM MES pH 7.0, 30 °C.

Substrate in series [2]: OC[C@H]1O[C@@](CO)(O[C@H]2O[C@H](CO)[C@@H](O)[C@H](O)[C@H]2O)[C@@H](O)[C@@H]1O
As to the kind of experiment: purified protein. Particulars: 2 M glycerol as acceptor, 50 mM MES pH 7.0, 30 °C.

B1: LmSucP (Leuconostoc mesenteroides) (protein)
chain: MEIQNKAMLITYADSLGKNLKDVHQVLKEDIGDAIGGVHLLPFFPSTGDRGFAPADYTRVDAAFGDWADVEALGEEYYLMFDFMINHISRESVMYQDFKKNHDDSKYKDFFIRWEKFWAKAGENRPTQADVDLIYKRKDKAPTQEITFDDGTTENLWNTFGEEQIDIDVNSAIAKEFIKTTLEDMVKHGANLIRLDAFAYAVKKVDTNDFFVEPEIWDTLNEVREILTPLKAEILPEIHEHYSIPKKINDHGYFTYDFALPMTTLYTLYSGKTNQLAKWLKMSPMKQFTTLDTHDGIGVVDARDILTDDEIDYASEQLYKVGANVKKTYSSASYNNLDIYQINSTYYSALGNDDAAYLLSRVFQVFAPGIPQIYYVGLLAGENDIALLESTKEGRNINRHYYTREEVKSEVKRPVVANLLKLLSWRNESPAFDLAGSITVDTPTDTTIVVTRQDENGQNKAVLTADAANKTFEIVENGQTVMSSDNLTQN
Consider B1, for which, in the series “purified protein [1]”, the Michaelis constant (Km) (usually the substrate concentration at which the rate is half of its maximum) amounted to 12.5 ± 1.7 mM; the kcat – broadly, the number of substrate molecules converted per active site and unit of time at saturation – was determined as 36 ± 3 s⁻¹. Moreover, in the series “purified protein [2]”, the Km stood at 1.4 ± 0.1 mM.
